Measured values published in patent US20100210517A1.

Experiments:
[1] = biological target: recombinant human LRP1 ligand binding cluster II (amino acids 786-1165, C-terminal Fc) (human); test: inhibitor pre-incubated with coated LRP1 cluster II-Fc, washed, then RAP d3 added; inhibition of RAP d3 binding
[2] = biological target: recombinant human LRP1 ligand binding cluster II (amino acids 786-1165, C-terminal Fc) (human); test: competition ELISA, inhibition of RAP d3 (2 nM) binding to coated LRP1 cluster II-Fc
[3] = biological target: LRP2 CR89 Y1042W (human) (UniProt P98164); test: solid-phase assay; OD at the highest ligand concentration as percent of the highest OD of all ligands
Sequence of LRP2 CR89 Y1042W (human) (P98164 1025-1102 Y1043W limits assumed): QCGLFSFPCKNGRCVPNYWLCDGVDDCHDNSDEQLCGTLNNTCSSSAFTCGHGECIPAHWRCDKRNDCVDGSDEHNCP

Sequence of mature human RAP (full-length) (P30533 35-357): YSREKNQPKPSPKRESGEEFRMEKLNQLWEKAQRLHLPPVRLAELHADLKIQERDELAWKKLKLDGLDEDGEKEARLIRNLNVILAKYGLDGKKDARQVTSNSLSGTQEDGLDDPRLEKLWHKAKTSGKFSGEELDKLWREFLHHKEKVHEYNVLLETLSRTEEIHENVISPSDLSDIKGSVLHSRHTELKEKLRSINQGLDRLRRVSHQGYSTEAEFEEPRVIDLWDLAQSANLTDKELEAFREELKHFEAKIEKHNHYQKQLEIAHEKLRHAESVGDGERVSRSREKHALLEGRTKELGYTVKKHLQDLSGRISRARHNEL
Sequence of recombinant human LRP1 ligand binding cluster II (amino acids 786-1165, C-terminal Fc) (human) (Q07954 786-1165): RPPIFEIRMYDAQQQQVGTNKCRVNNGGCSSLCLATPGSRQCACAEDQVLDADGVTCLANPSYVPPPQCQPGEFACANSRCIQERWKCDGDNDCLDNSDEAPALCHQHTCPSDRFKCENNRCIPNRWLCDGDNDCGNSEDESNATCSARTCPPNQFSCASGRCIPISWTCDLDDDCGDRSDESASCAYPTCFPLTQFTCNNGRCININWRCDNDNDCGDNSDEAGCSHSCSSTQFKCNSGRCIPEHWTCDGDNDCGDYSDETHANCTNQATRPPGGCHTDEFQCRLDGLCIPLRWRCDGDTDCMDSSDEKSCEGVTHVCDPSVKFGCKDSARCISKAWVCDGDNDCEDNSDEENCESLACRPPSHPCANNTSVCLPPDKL
Sequence of RAP d3 (wild-type domain 3 of human RAP, amino acids 201-319 of mature RAP) (P30533 235-353 A264E): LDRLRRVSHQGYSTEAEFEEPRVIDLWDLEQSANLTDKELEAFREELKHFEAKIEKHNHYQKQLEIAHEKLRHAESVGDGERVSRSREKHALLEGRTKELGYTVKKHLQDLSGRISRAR

| EC50 [1] [nM] | EC50 [2] [nM] | fold better EC50 than monomeric mRAPc peptide [2] [fold] | % max bind [3] [%] | Substance |
| --- | --- | --- | --- | --- |
| 0.3 | 0.5 | 64 |  | mature human RAP (full-length) (from UniProt P30533 35-357) (ligand) |
|  |  |  | 9 | RAP d3 (wild-type domain 3 of human RAP, amino acids 201-319 of mature RAP) (from UniProt P30533 235-353) (ligand) |
